In patent US20140234336A1 one finds MN assay: lowest antibody concentration and MN titer data, which are given here for 1 substance.

Assay in all cases: cell-based or functional assay
Assay [1] deals with HA of H3N2 influenza virus A/Wisconsin/67/05 (influenza A virus H3N2 A/Wisconsin/67/05).
The target of assay [2] is HA of H3N2 influenza virus A/Panama/2007/99 (influenza A virus H3N2 A/Panama/2007/99).
In assay [3] the target is HA of H3N2 influenza virus A/Sydney/5/97 (influenza A virus H3N2 A/Sydney/5/97).
The target in assay [4] is HA of H3N2 influenza virus A/Beijing/353/89-X109 (influenza A virus H3N2 A/Beijing/353/89-X109).
Assay [5] deals with HA of H2N2 influenza virus A/Ann Arbor/6/60, CA (influenza A virus H2N2 A/Ann Arbor/6/60, CA).
For assay [6], the target named is HA of H3N2 influenza virus A/Brisbane/10/07 (influenza A virus H3N2 A/Brisbane/10/07).
Assay [7] addresses HA of H3N2 influenza virus A/Hong Kong/68 (influenza A virus H3N2 A/Hong Kong/68).
Assay [8] concerns the target HA of H3N2 influenza virus A/Nanchang/933/95 (influenza A virus H3N2 A/Nanchang/933/95).
Assay [9] concerns the target HA of H3N2 influenza virus A/Johannesburg/33/94 R-H3 (influenza A virus H3N2 A/Johannesburg/33/94 R-H3).
Assay [10] concerns the target HA of H3N2 influenza virus A/Beijing/32/92-R-H3 (influenza A virus H3N2 A/Beijing/32/92-R-H3).
The target in assay [11] is HA of H9N2 influenza virus A/Green-winged teal/209/TX/2009 (influenza A virus H9N2 A/Green-winged teal/209/TX/2009).
Assay [12] has as its target HA of H1N1 influenza virus A/OH/07/2009 (influenza A virus H1N1 A/OH/07/2009).

A value given as a limit tells only on which side of the number the result lay.

Turning to CT149 antibody, the MN assay: lowest antibody concentration at which no virus antigen was detected in [1] came out at 1.25 µg/mL; in assay [6], 1.25 µg/mL; in assay [7] it was 2.5 µg/mL. In addition, the MN titer in assay [2] was 0.312 µg/mL; in assay [3], 0.625 µg/mL; in assay [4], 0.156 µg/mL; in assay [5], over 20 µg/mL; in assay [6] it was 0.625 µg/mL; in assay [8] it was 0.625 µg/mL. The MN titer in [9] came to 0.625 µg/mL; in assay [10] it was 0.078 µg/mL; in assay [11], 0.156 µg/mL; in assay [12] it was 10 µg/mL.
